Residue numbers refer to the chain shown, from its start. Names and notes keep the numbering of the source.
B1: Esp1 mutant C1531A tagged with a FLAG epitope, overexpressed in yeast (protein)
chain: MMVKQEEPLNEISPNTPMTSKSYLLNDTLSKVHHSGQTRPLTSVLSGDASSNSIGILAMHNNIIRDFTKIASNNIDLAIEDITTVDHSLNSIYSLLKSHHMWGHINSTVKQHLMIIVKLINNNALGLASSEIIFLFNETNLFQAHSLKNILLADFSTWNDYYLSNLKILALQIILKRKLVDEYLPHILELFSHDKRYLLKDPNLKAHALTKIVLSFFSVTTSCKVLFGLKFLQYIKQFKLPFKKFISNITVECFSKNLLHKNYLEMGPNKIYLNSFYLSYSMLYDGLDKIMLLDILSYEETTEVQRAIKSKKEFNEYCNMSENRLLWSCISVDDLNVILENATNFLQNKGKHISATLKCLVCLWSTIRLEGLPKNKDILRQFDCTVIYINSNIKSINDESAAALLSELLGVLSEICIDYKEPKRLSNIISVLFNASVLFKSHSFLLKTANLEISNVLISNDSKTSHRTILKFEKFISSAQSAQKKIEIFSCLFNVYCMLRNDTLSFVFDFCQNAFIHCFTRLKITKFIEFSNSSEIMLSVLYGNSSIENIPSENWSQLSRMIFCSLRGIFDLDPLELNNTFDKLHLLNKYELLIRIVYLLNLDMSKHLTTNLSKITKLYINKWLQKSDEKAERISSFEMDFVKMLLCYLNFNNFDKLSIELSLCIKSKEKYYSSIVPYADNYLLEAYLSLYMIDDALMMKNQLQKTMNLSTAKIEQALLHASSLINVHLWDSDLTAFQIYFGKTLPAMKPELFDINNDHNLPMSLYIKVILLNIKIFNESAKLNIKAGNVISAVIDCRKAQNLALSLLKKKNKLSQGSRLALLKSLSFSFFQLIKIHIRIGSARDCEFYSKELSRIISDLEEPIIVYRCLHFLHRYYMITEQTCLQNITLGKANKAFDYLDAEADITSLTMFLYDNKEFVKLEQSLVLYFGDQLEKTFLPNLWKLHLGKDIDDSICLSEYMPKNVINRVHNMWQKVMSQLEEDPFFKGMFESTLGIPSSLPVIPSTMPNNILKTPSKHSTGLKLCDSPRSSSMTPRGKNIRQKFDRIAAISKLKQMKELLESLKLDTLDNHELSKISSLSSLTLTILSNITSIHNAESSLITNFSLTDLPRHMPLLFDKVLNNIDNKNYREFRVSSLIAPNNISTITESIRVSAAQKDLMESNLNINVITIDFCPITGNLLLSKLEPRRKRRTHLRLPLIRSNSRDLDEVHLSFPEATKKLLSIINESNQTTSVEVTNKIKTREERKSWWTTRYDLDKRMQQLLNNIENSWFNGVQGFFSPEVVDNSLFEKFKDKFYEILHQNLPSRKLYGNPAMFIKVEDWVIELFLKLNPQEIDFLSKMEDLIYFVLDILLFHGEENAYDEIDFSMLHVQLEEQIKKYRATMTTNSIFHTFLVVSSSCHLFPWECLSFLKDLSITRVPSYVCLNKLLSRFHYQLPLQVTIEDNISMILNPNGDLSRTESKFKGMFQKIIDAKPSSQLVMNEKPEEETLLKMLQNSNLFVYIGHGGGEQYVRSKEIKKCTKIAPSFLLGASSAAMKYYGKLEPTGTIYTYLLGGCPMVLGNLWDVTDKDIDKFSEELFEKMGFRCNTDDLNGNSLSVSYAVSKSRGVCHLRYLNGAAPVIYGLPIKFVS
B2: Wildtype Esp1 tagged with a FLAG epitope, overexpressed in yeast (protein)
chain: B1 chain with A1531C
B3: Esp1 mutant H1505A tagged with a FLAG epitope, overexpressed in yeast (protein)
chain: B1 chain with H1505A, A1531C
B4: Pds1: yeast inhibitory protein binding Esp1; in vitro translated in reticulocyte lysate (protein)
chain: MMPANEDKENNIVYTGNESSGINFPQTPAHLLKRSHSNILKPPVRLDQLKRDANSNNGNTLKYIQGGKEVSPTKRLHTHAQQQGRLPLAAKDNNRSKSFIFPETSNQSKDADLPQLQNTLSIRKNDQLRKLSQISRSRSRANHNDLLSNSRKLQKYGSVLGYNALPKMKSLVLKDLADSGKNEESSDDDEGNEDSESKLGKKLQSALLKQDSSDGENELNGGLGLFNEQGGLQQLIKNSTKNEQKTKNDKSDKTDDYDIEIAPQRQEPLPYVPEGYSPFQQDDIEKLKTFNSPYKLDLEDEDDTPDKVDLLPLEQIDEEGEKDETECITRNQEEGAALPLLSKNFKEVAAVPTMELVYSEEGLDPEELEDLVT

Experiments:
Esp1 = biological target: T1, Esp1 (Saccharomyces cerevisiae, UniProt Q03018); experiment: In vitro assay for yeast Esp1p activity (Esp1-dependent Scc1p cleavage); assay type: biochemical; settings: yeast chromatin incubated with extract over-producing Esp1; Western blot
T1 construct: made in house; host or cells: S. cerevisiae W303 derivative overexpressing Esp1p from the GAL1-10 promoter; soluble cell extract, not purified
T1 sequence (Q03018 whole entry): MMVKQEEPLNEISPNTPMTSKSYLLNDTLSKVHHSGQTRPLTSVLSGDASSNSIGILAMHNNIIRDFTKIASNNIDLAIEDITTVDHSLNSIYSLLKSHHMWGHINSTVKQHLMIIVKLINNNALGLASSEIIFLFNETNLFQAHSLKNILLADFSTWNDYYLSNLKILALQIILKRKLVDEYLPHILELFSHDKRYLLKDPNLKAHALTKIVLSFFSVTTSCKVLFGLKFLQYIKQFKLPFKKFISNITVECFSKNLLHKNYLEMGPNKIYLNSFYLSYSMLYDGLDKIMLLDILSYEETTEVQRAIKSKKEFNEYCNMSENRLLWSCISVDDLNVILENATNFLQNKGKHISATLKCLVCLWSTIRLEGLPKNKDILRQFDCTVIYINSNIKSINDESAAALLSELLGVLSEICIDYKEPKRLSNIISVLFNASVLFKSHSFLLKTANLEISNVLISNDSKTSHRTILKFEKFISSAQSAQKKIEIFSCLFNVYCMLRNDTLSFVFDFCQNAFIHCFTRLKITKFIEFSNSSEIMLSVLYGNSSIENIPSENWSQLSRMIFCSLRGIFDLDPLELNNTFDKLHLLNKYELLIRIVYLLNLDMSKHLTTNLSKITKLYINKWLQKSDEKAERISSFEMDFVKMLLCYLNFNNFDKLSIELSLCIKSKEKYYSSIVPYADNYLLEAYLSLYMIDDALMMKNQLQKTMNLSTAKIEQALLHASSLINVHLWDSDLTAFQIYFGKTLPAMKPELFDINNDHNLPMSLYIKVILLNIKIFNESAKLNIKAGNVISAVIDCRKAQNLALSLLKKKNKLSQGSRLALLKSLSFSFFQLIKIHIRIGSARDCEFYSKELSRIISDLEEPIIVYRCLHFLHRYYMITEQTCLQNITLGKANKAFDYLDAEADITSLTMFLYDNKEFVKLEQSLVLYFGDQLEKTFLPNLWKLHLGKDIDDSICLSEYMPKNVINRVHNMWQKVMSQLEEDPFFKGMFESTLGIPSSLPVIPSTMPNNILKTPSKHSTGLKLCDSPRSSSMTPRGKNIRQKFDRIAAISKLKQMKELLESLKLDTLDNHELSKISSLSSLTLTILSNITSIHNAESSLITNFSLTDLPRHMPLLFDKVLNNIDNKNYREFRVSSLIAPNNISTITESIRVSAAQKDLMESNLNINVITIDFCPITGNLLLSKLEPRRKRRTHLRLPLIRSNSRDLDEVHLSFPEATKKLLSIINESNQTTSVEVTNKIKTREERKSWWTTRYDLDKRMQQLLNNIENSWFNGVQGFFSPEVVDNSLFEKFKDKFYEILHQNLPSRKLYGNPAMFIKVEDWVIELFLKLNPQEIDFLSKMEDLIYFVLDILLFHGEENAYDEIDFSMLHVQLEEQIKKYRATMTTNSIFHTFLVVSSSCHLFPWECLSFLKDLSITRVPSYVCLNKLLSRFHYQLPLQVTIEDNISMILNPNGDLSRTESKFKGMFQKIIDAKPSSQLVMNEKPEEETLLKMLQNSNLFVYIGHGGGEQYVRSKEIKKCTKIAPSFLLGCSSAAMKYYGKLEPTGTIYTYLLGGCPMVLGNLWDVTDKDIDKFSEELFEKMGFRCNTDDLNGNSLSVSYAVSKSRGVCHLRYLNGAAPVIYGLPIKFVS
Protocol: A crude Triton X-100 insoluble chromatin preparation was obtained from yeast cells as described (Liang and Stillman, 1997). The pelleted chromatin was resuspended in yeast cell extracts that had been prepared similar to the supernatant fraction of the chromatin preparation. One tenth volume of an ATP regenerating system was added (50 mM HEPES/KOH pH-7.5, 100 mM KCl, 10 mM MgCl2, 10 mM ATP, 600 mM creatin phosphate, 1.5 mg/ml phophocreatin kinase, 1 mM DTT, 10% glycerol). Reactions were incubated for 10 min at 25° C. with shaking and stopped on ice. The chromatin fraction was separated again from the supernatant by centrifugation, and resuspended in buffer EBX (Liang and Stillman, 1997). Equivalent aliquots of supernatant and chromatin pellet were analysed by SDS-PAGE and Western blotting. Scc1-HA was detected with the anti-HA monoclonal antibody 16B12 (Boehringer Mannheim). […]
Chromatin was prepared from a strain containing Scc1p tagged with HA epitopes that was arrested in metaphase with nocodazol. The proteins in the chromatin preparation were resolved by SDS-PAGE and Scc1-HA was detected by western blotting (FIG. 2, lane 1). […] Aliquots of the supernatant fraction and the chromatin fraction of each reaction were analysed.

[1] = biological target: T2, Scc1p tagged with multiple HA epitopes, chromatin-bound (chromatin of nocodazole-arrested yeast), Q12158
T2 chain: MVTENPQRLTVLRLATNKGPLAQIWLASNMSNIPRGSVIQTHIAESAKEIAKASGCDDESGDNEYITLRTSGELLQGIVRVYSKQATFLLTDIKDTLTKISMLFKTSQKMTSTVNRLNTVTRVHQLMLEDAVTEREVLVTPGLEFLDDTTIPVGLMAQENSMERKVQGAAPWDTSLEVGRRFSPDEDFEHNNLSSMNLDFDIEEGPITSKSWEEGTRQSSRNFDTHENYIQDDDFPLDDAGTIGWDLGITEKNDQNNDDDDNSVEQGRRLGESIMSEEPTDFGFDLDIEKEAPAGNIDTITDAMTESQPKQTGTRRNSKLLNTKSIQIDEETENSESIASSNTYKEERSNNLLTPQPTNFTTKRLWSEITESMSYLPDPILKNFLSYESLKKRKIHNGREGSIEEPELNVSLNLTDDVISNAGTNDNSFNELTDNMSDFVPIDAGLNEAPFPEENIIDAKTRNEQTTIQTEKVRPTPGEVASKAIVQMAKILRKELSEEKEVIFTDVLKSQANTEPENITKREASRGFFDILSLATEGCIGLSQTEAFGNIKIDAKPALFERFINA

Molecule | Esp1-dependent in vitro cleavage of Scc1p (Esp1) | Scc1 cleavage activity in yeast extracts [1]
CCN1C(=O)C=CC1=O [N-ethyl maleimide] | inhibited | 
B1 |  | Both mutations completely abolished the proteolytic activity in yeast extracts after overproduction of the proteins
B2 |  | Wild type Esp1 overexpressed to a similar level caused complete cleavage of the Scc1 substrate
B3 |  | Both mutations completely abolished the proteolytic activity in yeast extracts after overproduction of the proteins
B4 | inhibited | 
